These results are taken from patent CN113840601A (dated 2021).

One test deals with T1, 小鼠c-Met (mouse c-Met) (mouse, UniProt P16056 25-1379, limits assumed).
T1 construct: Endogenous mouse protein in the host animals; no construct described
Put plainly: not described; stated in the results of the xenograft example as the reason why tolerability could not be assessed.

For the next test, the target named is T2, 小鼠EGFR (mouse EGFR) (mouse, UniProt Q01279 25-1210, limits assumed).
T2 construct: Endogenous mouse protein in the host animals; no construct described
The description is as above.

T1 sequence (P16056 25-1379 limits assumed): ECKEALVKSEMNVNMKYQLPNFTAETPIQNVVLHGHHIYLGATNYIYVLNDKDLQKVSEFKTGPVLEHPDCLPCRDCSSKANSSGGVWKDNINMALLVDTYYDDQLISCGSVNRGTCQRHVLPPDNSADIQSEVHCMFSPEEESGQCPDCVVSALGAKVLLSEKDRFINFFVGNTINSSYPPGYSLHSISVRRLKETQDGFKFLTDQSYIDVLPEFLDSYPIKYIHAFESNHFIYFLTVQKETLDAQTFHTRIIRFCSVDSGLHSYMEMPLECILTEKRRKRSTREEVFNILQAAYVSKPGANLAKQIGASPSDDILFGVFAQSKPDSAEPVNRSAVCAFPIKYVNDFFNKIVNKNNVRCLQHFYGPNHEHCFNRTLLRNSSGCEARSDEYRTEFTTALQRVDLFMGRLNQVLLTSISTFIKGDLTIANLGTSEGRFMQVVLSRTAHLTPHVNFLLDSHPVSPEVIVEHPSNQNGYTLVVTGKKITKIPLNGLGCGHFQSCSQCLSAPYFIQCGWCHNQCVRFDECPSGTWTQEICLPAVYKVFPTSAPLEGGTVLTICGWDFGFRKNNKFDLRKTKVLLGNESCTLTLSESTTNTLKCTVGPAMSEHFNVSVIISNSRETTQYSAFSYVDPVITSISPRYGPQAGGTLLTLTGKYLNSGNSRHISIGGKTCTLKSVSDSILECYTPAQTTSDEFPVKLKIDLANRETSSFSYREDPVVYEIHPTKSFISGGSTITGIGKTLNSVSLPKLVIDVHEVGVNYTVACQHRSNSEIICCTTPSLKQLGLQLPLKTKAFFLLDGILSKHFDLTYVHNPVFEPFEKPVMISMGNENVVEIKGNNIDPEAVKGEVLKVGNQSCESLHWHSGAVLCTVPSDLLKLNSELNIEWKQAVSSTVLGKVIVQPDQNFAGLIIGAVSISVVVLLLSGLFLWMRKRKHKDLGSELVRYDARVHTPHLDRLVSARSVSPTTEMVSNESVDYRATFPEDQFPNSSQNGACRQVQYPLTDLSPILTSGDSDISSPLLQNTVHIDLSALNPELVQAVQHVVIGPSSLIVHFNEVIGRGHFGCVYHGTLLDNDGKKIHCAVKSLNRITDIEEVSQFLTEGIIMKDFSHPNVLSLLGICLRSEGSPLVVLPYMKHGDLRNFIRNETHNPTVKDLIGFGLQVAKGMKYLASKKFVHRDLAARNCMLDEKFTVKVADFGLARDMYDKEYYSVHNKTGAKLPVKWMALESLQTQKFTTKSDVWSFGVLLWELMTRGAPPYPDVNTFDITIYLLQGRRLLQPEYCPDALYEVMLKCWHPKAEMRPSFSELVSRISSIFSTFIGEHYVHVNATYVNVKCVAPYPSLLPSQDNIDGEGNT

B1: JNJ-61186372 (bispecific antibody, human IgG1, kappa)
heavy 1: not shown
light 1: not shown
heavy 2: not shown
light 2: DIQMTQSPSSVSASVGDRVTITCRASQGISNWLAWFQHKPGKAPKLLIYAASSLLSGVPSRFSGSGSGTDFTLTISSLQPEDFATYYCQQANSFPITFGQGTRLEIKRTVAAPSVFIFPPSDEQLKSGTASVVCLLNNFYPREAKVQWKVDNALQSGNSQESVTEQDSKDSTYSLSSTLTLSKADYEKHKVYACEVTHQGLSSPVTKSFNRGEC
notes: also called CNTO4424
For the molecule B1, the binding result in the test with 小鼠c-Met (mouse c-Met) and with 小鼠EGFR (mouse EGFR) was “no binding” throughout.
